B1: Syndecan-4 (Rattus norvegicus (Rat)), P34901 (parent)
chain: MAPVCLFAPLLLLLLGGFPVAPGESIRETEVIDPQDLLEGRYFSGALPDDEDAGGLEQDSDFELSGSGDLDDTEEPRTFPEVISPLVPLDNHIPENAQPGIRVPSEPKELEENEVIPKRVPSDVGDDDVSNKVSMSSTSQGSNIFERTEVLAALIVGGVVGILFAVFLILLLVYRMKKKDEGSYDLGKKPIYKKAPTNEFYA

The values below come from IntAct's records for PubMed 12571249.

Variants of B1 are the subject of the assay. The settings on record: with kpca_human PRKCA.
As to Y192F, the “effect of a mutation on the interaction” value was “disrupting interaction”.
